These results are taken from US8933202B2, “AXL antibodies” (U3 Pharma GmbH, priority 2007, dated 2015).

The test system of assay [1] is NIH3T3-pLXSN control. Nature of the assay: Primary FACS screen of hybridoma antibodies, binding to mock control cells. The method, then:
Monoclonal rat anti-AXL antibodies were raised by injection of approximately 10×10^6 frozen cells of RatI-AXL cl.2 both i.p. and subcutaneously into Lou/C or Long Evans rats. After an 8-week interval, a final boost was given i.p and subcutaneously 3 d before fusion. Fusion of the myeloma cell line P3X63-Ag8.653 with the rat immune spleen cells was performed according to standard procedures and yielded 105 hybridomas. After 2 weeks, first supernatants from hybridomas were collected and tested in a primary FACS screen for binding to NIH3T3-AXL cl.7 fibroblasts versus NIH3T3-Mock control cells. Clones positive for AXL binding were further cultivated. From 50 ml supernatant of these clones, antibodies were purified and re-analyzed for specific binding to AXL on NIH3T3-AXL cl.7 fibroblasts versus NIH3T3-Mock control cells. Purified antibodies specifically binding to NIH3T3-AXL cl. 7 fibroblasts but not NIH3T3-Mock control cells were furthermore tested in Akt-Kinase phosphorylation ELISAs, and ELISAs to determine the isotype were performed. For purification of rat antibodies, supernatants were spun for 20 minutes at 5,000 g and subsequently sterile filtered. 500 μl of protein G sepharose FF were added and incubated at 4° C. for at least 1 h on a spinning wheel. […]

Assay [2] has as its target T1, human AXL-ECD (Homo sapiens, UniProt P30530).
T1 construct: purchased R&D Systems 154-AL
T1 sequence (P30530 26-451 limits assumed): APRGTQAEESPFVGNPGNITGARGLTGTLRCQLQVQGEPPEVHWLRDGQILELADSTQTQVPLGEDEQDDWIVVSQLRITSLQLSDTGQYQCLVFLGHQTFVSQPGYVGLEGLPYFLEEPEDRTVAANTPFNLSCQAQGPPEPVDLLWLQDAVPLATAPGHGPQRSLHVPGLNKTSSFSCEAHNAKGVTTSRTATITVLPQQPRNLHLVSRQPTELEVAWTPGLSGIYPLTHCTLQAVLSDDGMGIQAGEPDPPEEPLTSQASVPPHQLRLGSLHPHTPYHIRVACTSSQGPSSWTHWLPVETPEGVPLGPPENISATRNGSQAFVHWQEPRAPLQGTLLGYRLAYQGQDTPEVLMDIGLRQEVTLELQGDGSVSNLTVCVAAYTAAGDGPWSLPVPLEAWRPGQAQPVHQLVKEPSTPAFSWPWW
Nature of the assay: Competition ELISA on AXL-ECD coated plates. The format is binding. The following applies: 10 μg/ml unbiotinylated, 0.5 μg/ml biotinylated antibody. The method, then:
Therefore binding of biotinylated anti-AXL antibodies to AXL-ECD domain-coated plates preincubated with anti-AXL antibodies was determined in a competition ELISA. […] On day 1, black 96 well Maxi-Sorp plates (Nunc) were coated with 100 μl/well of 1 μg/ml human AXL-ECD (R&D Systems #154-AL) in PBS over night at 4° C. […] After washing 6× with wash buffer (PBS, 0.1% TWEEN-20), 80 μl/well AP-conjugated Streptavidin (Chemicon #SA110) diluted 1:4,000 in blocking buffer were added, incubated for 20 min at room temperature washed again 6× with wash buffer and finally washed once with PBS. For detection, 100 μl/well Attophos substrate solution (Roche #11681982) were added. Using a Victor plate reader (Perkin Elmer), the fluorescence of each well was collected at an excitation wavelength of 430 nm an emission wavelength of 580 nm.
On the technique in general: In an ELISA, binding on a coated surface is turned into a signal by an enzyme label.

Assay [3] relates to NCI-H292 lung cancer cells. The assay can be described thus: Wound healing/scratch assay. In kind it is cell-based, human. Conditions: 10 μg/ml antibody, 24 h, compared to isotypic control antibody. The text has this: To examine the migration and proliferation rates of different cells and culture conditions, in vitro wound healing/scratch assays are being employed for many years. These assays generally involve growing a confluent cell monolayer first. A small area is then disrupted and a group of cells are being destroyed or displaced by scratching a line through the layer with, for example, a pipette tip. The open gap is then inspected microscopically over time as the cells move in and fill the damaged area (“healing”). In brief, 1.5×10^6 NCI-H292 lung cancer cells were seeded per well of a 12 well dish and cultured in normal growth medium (RPMI, 10% FCS). After 8 h, cells were rinsed with PBS and starved in low serum medium (RPMI, 0.5% FCS) over night for 24 h. Using a sterile 200 μl pipette tip, three separate uniform wounds per well were scratched through the confluent NCI-H292 cell monolayers. […] Cells were permitted to migrate into the area of clearing for 24 h, washed once with PBS and fixed with ice cold Methanol (100%) at −20° C. After cells were stained with crystal violet (0.5% in 20% Methanol), rinsed with water and dried over night, photos of the wounds were taken.

Assay [4] deals with T2, AXL (Homo sapiens, UniProt P30530).
T2 sequence (P30530 26-894): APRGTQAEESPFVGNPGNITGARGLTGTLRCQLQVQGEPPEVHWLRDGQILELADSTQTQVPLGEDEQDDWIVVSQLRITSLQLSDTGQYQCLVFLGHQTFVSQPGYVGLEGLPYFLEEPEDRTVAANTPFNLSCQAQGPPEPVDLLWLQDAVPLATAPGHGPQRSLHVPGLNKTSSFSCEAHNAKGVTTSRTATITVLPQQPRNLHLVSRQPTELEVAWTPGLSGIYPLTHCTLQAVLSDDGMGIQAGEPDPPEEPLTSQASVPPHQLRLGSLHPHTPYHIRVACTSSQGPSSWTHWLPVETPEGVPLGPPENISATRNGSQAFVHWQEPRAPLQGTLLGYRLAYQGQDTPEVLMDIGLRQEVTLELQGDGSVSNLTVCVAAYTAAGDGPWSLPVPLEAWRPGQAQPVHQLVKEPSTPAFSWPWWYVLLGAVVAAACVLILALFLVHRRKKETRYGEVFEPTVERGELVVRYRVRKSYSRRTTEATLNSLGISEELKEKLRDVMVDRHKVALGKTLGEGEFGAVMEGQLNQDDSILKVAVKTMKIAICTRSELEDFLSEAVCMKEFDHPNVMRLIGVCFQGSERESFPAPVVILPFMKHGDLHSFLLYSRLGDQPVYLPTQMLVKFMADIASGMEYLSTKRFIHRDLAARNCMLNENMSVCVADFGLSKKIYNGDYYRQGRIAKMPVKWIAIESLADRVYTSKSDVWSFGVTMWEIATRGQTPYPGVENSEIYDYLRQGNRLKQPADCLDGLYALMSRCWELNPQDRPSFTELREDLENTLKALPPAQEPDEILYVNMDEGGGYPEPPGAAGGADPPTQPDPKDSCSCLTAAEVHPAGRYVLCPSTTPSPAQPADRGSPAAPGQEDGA
Nature of the assay: AXL receptor tyrosine phosphorylation ELISA. In kind it is cell-based. Also noted: expressed in transfected cells; host or cells: NIH3T3-AXL cl.7 (pLXSN-hAXL) and NCI-H292 lung cancer cells (endogenous AXL). Conditions: 10 μg/ml antibody, 400 ng/ml Gas6; NIH3T3-AXL cl.7 fibroblasts and NCI-H292 lung cancer cells. The method, then: ELISA experiments were performed in order to investigate whether the rat anti-AXL antibodies of the invention are able to block ligand Gash-mediated activation of AXL. Gas6-mediated AXL activation was detected by increased receptor tyrosine phosphorylation. In brief, on day 1, 3×10^4 cells per well were seeded in normal growth medium in flat-bottom 96 well plates. The next day, growth medium was replaced by serum-free medium to starve cells over night for 24 h. Also over night, black Maxi-Sorp 96 well plates (Nunc) were coated with mouse anti-phospho-tyrosine antibody 4G10 at 2 μg/ml PBS and 4° C. On day 3, the 4G10 antibody solution was removed and Maxi-Sorp wells were blocked with PBS, 0.5% BSA for at lest 4 h at room temperature. […] Medium was then flicked out and cells were lysed in lysis buffer (50 mM HEPES, pH 7.5, 150 mM NaCl, 1 mM EDTA, 10% glycerine, and 1% Triton X-100) supplemented with phosphatase and protease inhibitors (10 mM Na4P2O7, 1 mM phenylmethylsulfonyl fluoride, 1 mM orthovanadate, 1 mM NaF, and 0.5% aprotinin) for 30 min on ice. […] Using a Victor plate reader (Perkin Elmer), the fluorescence of each well was collected at an excitation wavelength of 430 nm and an emission wavelength of 580 nm.

B1: 10D12: antagonistic rat anti-AXL monoclonal antibody (antibody, V domains shown)
VL: DIQMTQAPSSLPASLGDRVTIACRASQDIGNYLRWFQQKPGKSPRLMISGATNLAAGVPSRFSGSRSGSDYSRTISSLESEDMADYYCLQSKESPWTFGGGTKLELK
VH: EVQLQESGPGLVKPSQSLSLTCSVTGYSITSNYWGWIRKFPGNKMEWMGYITNSGGTAYNPSLKSRISITRDTSKNQFFLQLNSVIPEDSATYFCSRTPWDWGQGVMVTVSS
Consider B1, for which, in assay [1], the “FACS shift NIH3T3-pLXSN control” value came out at 0.5. The “competition with antagonistic anti-AXL antibodies for binding to AXL-ECD” value in assay [2] was “compete with each other for the same or structurally adjacent epitopes”. The “re-population of the cleared area (wound closure)” value in assay [3] is “reduced the re-population of the cleared area”. The “ligand-mediated AXL activation (phosphorylation)” value in assay [4] was “able to block or reduce ligand-mediated AXL activation”.
